Square brackets hold non-standard residues; d marks the D form. Ends that are not written are not given here. * marks the point of attachment. Biotin = O=C1N[C@H]2[C@H](CS[C@H]2CCCCC(=O)*)N1; pY = N[C@@H](Cc1ccc(OP(=O)(O)O)cc1)C(=O)O
Target: T1, GST fusion of the SH2 domain of mouse Fyn (residues 145-247) (mouse, UniProt P39688 145-247)
T1 construct: SH2 domain of mouse Fyn, residues 145-247; Cloned into pGEX-6P-1; also called GST-SH2 (Fyn); SH2 domain of Fyn; source: Escherichia coli, IPTG induction, purified with glutathione-sepharose beads
T1 sequence (P39688 145-247): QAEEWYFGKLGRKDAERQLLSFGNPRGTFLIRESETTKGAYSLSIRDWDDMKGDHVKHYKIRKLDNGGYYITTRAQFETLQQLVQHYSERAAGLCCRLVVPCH
Assay: pull-down; 10 µg of biotinylated pY120 peptide incubated with increasing amounts of purified GST proteins overnight at 4°C; recovered with streptavidin-conjugated beads; anti-GST immunoblot
Details: both partners purified

B1: N-terminal biotinylated, tyrosine phosphorylated M2 peptide incorporating Y120 (SPEENIpYETANSE) (peptide)
peptide: Biotin-SPEENI[pY]ETANSE
notes: region of M2 of MHV-68 incorporating Y120; numbers count on: the final spliced form of the protein; also called pY120 peptide; phosphorylated Y120 peptide; source: synthetic peptide, bought: Sigma
  binding result: binds

Reference: publication PMC2244710, “The Gammaherpesvirus m2 Protein Manipulates the Fyn/Vav Pathway through a Multidocking Mechanism of Assembly” (PLoS ONE, 2008)
